Test results reported in the supplement of paper PMC7877785.
± gives the uncertainty stated by the source.

Experiment: self-splicing fitness, log relative to wild type (ln ratio); higher = more splicing; Tetrahymena group I intron in knt gene, E. coli kanamycin selection, DiMSum; sequences stand for … in CUCUCU…GGAGGGAAAAGUUAUCAGGCAUGCACCUGGUAGCUAGUCUUUAAACCAAUAGAUUGCAUCGGUUUAAAAGGCAAGACCGUCAAAUUGCGGGAAAGGGGUCAACAGCCGUUCAGUACCAAGUCUCAGGGGAAACUUUGAGAUGGCCUUGCAAAGGGUAUGGUAAUAAGCUGACGGACAUGGUCCUAACCACGCAGCCAAGUCCUAAGUCAACAGAUCUUCUGUUGAUAUGGAUGCAGUUCACAGACUAAAUGUCGGUCGGGGAAGAUGUAUUCUUCUCAUAAGAUAUAGUCGGACCUCUCCUUAAUGGGAGCUAGCGGAUGAAGUGAUGCAACACUGGAGCCGCUGGGAACUAAUUUGUAUGCGAAAGUAUAUUGAUUAGUUUUGGAGUACUCGUGGUCG
Method in brief: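 DiMSum derived fitness as the error-weighted combination of fold changes across replicates, kanamycin versus no kanamycin, normalised to wild type. E. coli BL21(DE3) held the library, which randomised all eight P1ex-region intron nucleotides within the knt kanamycin-resistance gene on pET-22b(+). Six replicate transformations grew overnight at 37°C or 30°C on LB agar with or without 25 μg/mL kanamycin, also containing 100 μg/mL carbenicillin, 50 μM IPTG and 0.2% rhamnose, and pooled colonies were amplicon-sequenced on an Illumina HiSeq 2500.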

Sequence | self-splicing fitness (ln) (30 °C) | self-splicing fitness (ln) (37 °C)
CCGUAGCAAUAUUACGCAGA | -2.96 ± 0.25 | -2.74 ± 0.24
CCGUAGCAAUAUUACGCCUU | -3.08 ± 0.44 | -2.19 ± 0.31
CCGUAGCAAUAUUACGCGGC | -2.94 ± 0.19 | -2.51 ± 0.27
CCGUAGCAAUAUUACGGCGU | -2.57 ± 0.23 | -1.86 ± 0.25
CCGUAGCAAUAUUACGGGAG | -3.35 ± 0.19 | -2.97 ± 0.18
CCGUAGCAAUAUUACGGUCC | -4.14 ± 0.3 | -2.93 ± 0.28
CCGUAGCAAUAUUACGUAGC | -3.91 ± 0.21 | -2.63 ± 0.22
CCGUAGCAAUAUUACGUAUC |  | -2.65 ± 0.29
CCGUAGCAAUAUUACGUGGU | -4.27 ± 0.24 | -2.12 ± 0.14
CCGUAGCAAUAUUACGUUGC | -3.53 ± 0.28 | -2.04 ± 0.43
CCGUAGCAAUAUUACGUUUA | -3.43 ± 0.44 | -3.04 ± 0.4
CCUAAGCAAUAUUACGAAAA | -3.53 ± 0.28 | -2.44 ± 0.19
CCUAAGCAAUAUUACGAAAC | -3.48 ± 0.33 | 
CCUAAGCAAUAUUACGAAUA | -3.51 ± 0.35 | 
CCUAAGCAAUAUUACGAUUU | -3.8 ± 0.25 | -0.794 ± 0.23
CCUAAGCAAUAUUACGCAUG | -3.6 ± 0.33 | -1.51 ± 0.23
CCUAAGCAAUAUUACGCGCG | -3.42 ± 0.39 | -1.9 ± 0.25
CCUAAGCAAUAUUACGCGUG | -3.34 ± 0.13 | -2.48 ± 0.13
CCUAAGCAAUAUUACGCUCG |  | -2.15 ± 0.3
CCUAAGCAAUAUUACGGAUA | -4.31 ± 0.26 | -4.12 ± 0.31
CCUAAGCAAUAUUACGGGGA | -2.84 ± 0.15 | -1.92 ± 0.13
CCUAAGCAAUAUUACGGUCU | -3.89 ± 0.31 | -2.94 ± 0.34
CCUAAGCAAUAUUACGGUGG | -2.76 ± 0.11 | -2.03 ± 0.14
CCUAAGCAAUAUUACGGUUA | -3.71 ± 0.16 | -2.67 ± 0.14

Sequence | self-splicing fitness (ln) (30 °C) | self-splicing fitness (ln) (37 °C)
CCUAAGCAAUAUUACGGUUG | -3.92 ± 0.19 | -2.07 ± 0.15
CCUAAGCAAUAUUACGUAAC | -2.97 ± 0.17 | -1.77 ± 0.29
CCUAAGCAAUAUUACGUCGC | -2.21 ± 0.16 | -1.85 ± 0.2
CCUAAGCAAUAUUACGUGAA |  | -1.96 ± 0.26
CCUAAGCAAUAUUACGUGAU | -4.46 ± 0.23 | -2.71 ± 0.21
CCUAAGCAAUAUUACGUGCG | -2.59 ± 0.13 | -1.03 ± 0.12
CCUAAGCAAUAUUACGUGUU | -3.2 ± 0.14 | -3.07 ± 0.19
CCUCAGCAAUAUUACGAGAG | -2.75 ± 0.13 | -1.47 ± 0.1
CCUCAGCAAUAUUACGAGCC | -0.962 ± 0.25 | -0.207 ± 0.41
CCUCAGCAAUAUUACGAUAA | -2.82 ± 0.16 | -3.35 ± 0.32
CCUCAGCAAUAUUACGAUAU | -4.25 ± 0.25 | -0.929 ± 0.15
CCUCAGCAAUAUUACGCCUC | -3.76 ± 0.35 | -1.75 ± 0.31
CCUCAGCAAUAUUACGCUCG | -2.8 ± 0.16 | -2.96 ± 0.24
CCUCAGCAAUAUUACGGGCG | -1.59 ± 0.069 | -0.619 ± 0.074
CCUCAGCAAUAUUACGGUAA | -3.97 ± 0.25 | -2.47 ± 0.18
CCUCAGCAAUAUUACGGUCG | -0.693 ± 0.069 | -0.505 ± 0.089
CCUCAGCAAUAUUACGGUGA | -3.68 ± 0.28 | -2.28 ± 0.2
CCUCAGCAAUAUUACGGUUC | -3.33 ± 0.14 | -3.16 ± 0.27
CCUCAGCAAUAUUACGUACU | -3.42 ± 0.22 | -1.98 ± 0.22
CCUCAGCAAUAUUACGUAUA | -3.44 ± 0.19 | -3.16 ± 0.32
CCUCAGCAAUAUUACGUCAC | -3.97 ± 0.27 | -2.36 ± 0.26
CCUCAGCAAUAUUACGUCUA | -3.41 ± 0.26 | -2.46 ± 0.28
CCUCAGCAAUAUUACGUGCG | -2.51 ± 0.11 | -1.71 ± 0.12
CCUCAGCAAUAUUACGUUCA | -2.61 ± 0.16 | -2.68 ± 0.3
